± gives the standard deviation of the averaged measurements.
Assays:
MCF7 = assay: percentage of EdU-negative (G0-arrested) nuclei per well, 72 h; higher = more G0 arrest; settings: reference: sequence is the full UniProt precursor, the tested protein was the secreted form or ectodomain
hTERT-HMEC = assay: as above; settings: reference: sequence is the full UniProt precursor, the tested protein was the secreted form or ectodomain
[1] = protein concentration 0.00775 µM
[2] = protein concentration 0.0775 µM
[3] = protein concentration 0.0225 µM
[4] = protein concentration 0.0115 µM
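Further: secreted proteins added to cultured cells, EdU pulse at the end, nuclei found by Hoechst imaging, EdU status from nuclear versus surrounding ring intensity ratio, PBS as neutral control.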

## MPERLAEMLLDLWTPLIILWITLPPCIYMAPMNQSQVLMSGSPLELNSLGEEQRILNRSKRGWVWNQMFVLEEFSGPEPILVGRLHTDLDPGSKKIKYILSGDGAGTIFQINDVTGDIHAIKRLDREEKAEYTLTAQAVDWETSKPLEPPSEFIIKVQDINDNAPEFLNGPYHATVPEMSILGTSVTNVTATDADDPVYGNSAKLVYSILEGQPYFSIEPETAIIKTALPNMDREAKEEYLVVIQAKDMGGHSGGLSGTTTLTVTLTDVNDNPPKFAQSLYHFSVPEDVVLGTAIGRVKANDQDIGENAQSSYDIIDGDGTALFEITSDAQAQDGIIRLRKPLDFETKKSYTLKVEAANVHIDPRFSGRGPFKDTATVKIVVEDADEPPVFSSPTYLLEVHENAALNSVIGQVTARDPDITSSPIRFSIDRHTDLERQFNINADDGKITLATPLDRELSVWHNITIIATEIRNHSQISRVPVAIKVLDVNDNAPEFASEYEAFLCENGKPGQVIQTVSAMDKDDPKNGHYFLYSLLPEMVNNPNFTIKKNEDNSLSILAKHNGFNRQKQEVYLLPIIISDSGNPPLSSTSTLTIRVCGCSNDGVVQSCNVEAYVLPIGLSMGALIAILACIILLLVIVVLFVTLRRHKNEPLIIKDDEDVRENIIRYDDEGGGEEDTEAFDIATLQNPDGINGFLPRKDIKPDLQFMPRQGLAPVPNGVDVDEFINVRLHEADNDPTAPPYDSIQIYGYEGRGSVAGSLSSLESTTSDSDQNFDYLSDWGPRFKRLGELYSVGESDKET
MCF7; [1]
  percentage of EdU-negative: 27.78 ± 0.12%
MCF7; [2]
  percentage of EdU-negative: 34.9 ± 1.6%
hTERT-HMEC; [1]
  percentage of EdU-negative: 5.37 ± 0.11%
hTERT-HMEC; [2]
  percentage of EdU-negative: 5.69 ± 0.22%

## MIRTLLLSTLVAGALSCGVSTYAPDMSRMLGGEEARPNSWPWQVSLQYSSNGQWYHTCGGSLIANSWVLTAAHCISSSGIYRVMLGQHNLYVAESGSLAVSVSKIVVHKDWNSDQVSKGNDIALLKLANPVSLTDKIQLACLPPAGTILPNNYPCYVTGWGRLQTNGALPDDLKQGQLLVVDYATCSSSGWWGSTVKTNMICAGGDGVICTCNGDSGGPLNCQASDGRWEVHGIGSLTSVLGCNYYYKPSIFTRVSNYNDWINSVIANN
MCF7; [3]
  percentage of EdU-negative: 22.3 ± 2.4%
MCF7; protein concentration 0.225 µM
  percentage of EdU-negative: 26.3 ± 0.6%
hTERT-HMEC; [3]
  percentage of EdU-negative: 4.64 ± 0.17%
hTERT-HMEC; protein concentration 0.225 µM
  percentage of EdU-negative: 5.75 ± 0.53%

## MNGFASLLRRNQFILLVLFLLQIQSLGLDIDSRPTAEVCATHTISPGPKGDDGEKGDPGEEGKHGKVGRMGPKGIKGELGDMGDQGNIGKTGPIGKKGDKGEKGLLGIPGEKGKAGTVCDCGRYRKFVGQLDISIARLKTSMKFVKNVIAGIRETEEKFYYIVQEEKNYRESLTHCRIRGGMLAMPKDEAANTLIADYVAKSGFFRVFIGVNDLEREGQYMFTDNTPLQNYSNWNEGEPSDPYGHEDCVEMLSSGRWNDTECHLTMYFVCEFIKKKK [Q9Y6Z7]
MCF7; [3]
  percentage of EdU-negative: 24.36 ± 0.1%
MCF7; protein concentration 0.225 µM
  percentage of EdU-negative: 29.1 ± 0.55%
hTERT-HMEC; [3]
  percentage of EdU-negative: 5.319 ± 0.012%
hTERT-HMEC; protein concentration 0.225 µM
  percentage of EdU-negative: 7.17 ± 1.1%

## MLLLFLLFEGLCCPGENTAAPQALQSYHLAAEEQLSFRMLQTSSFANHSWAHSEGSGWLGDLQTHGWDTVLGTIRFLKPWSHGNFSKQELKNLQSLFQLYFHSFIQIVQASAGQFQLEYPFEIQILAGCRMNAPQIFLNMAYQGSDFLSFQGISWEPSPGAGIRAQNICKVLNRYLDIKEILQSLLGHTCPRFLAGLMEAGESELKRKVKPEAWLSCGPSPGPGRLQLVCHVSGFYPKPVWVMWMRGEQEQRGTQRGDVLPNADETWYLRATLDVAAGEAAGLSCRVKHSSLGGHDLIIHWGGYSIFLILICLTVIVTLVILVVVDSRLKKQSSNKNILSPHTPSPVFLMGANTQDTKNSRHQFCLAQVSWIKNRVLKKWKTRLNQLW
MCF7; [4]
  percentage of EdU-negative: 28.7 ± 2.1%
MCF7; protein concentration 0.115 µM
  percentage of EdU-negative: 26 ± 1.3%
hTERT-HMEC; [4]
  percentage of EdU-negative: 4.889 ± 0.0055%
hTERT-HMEC; protein concentration 0.115 µM
  percentage of EdU-negative: 8.22 ± 0.88%

## MRPLLVLLLLGLAAGSPPLDDNKIPSLCPGHPGLPGTPGHHGSQGLPGRDGRDGRDGAPGAPGEKGEGGRPGLPGPRGDPGPRGEAGPAGPTGPAGECSVPPRSAFSAKRSESRVPPPSDAPLPFDRVLVNEQGHYDAVTGKFTCQVPGVYYFAVHATVYRASLQFDLVKNGESIASFFQFFGGWPKPASLSGGAMVRLEPEDQVWVQVGVGDYIGIYASIKTDSTFSGFLVYSDWHSSPVFA [Q9BXJ0]
MCF7; [3]
  percentage of EdU-negative: 23.7 ± 0.35%
MCF7; protein concentration 0.225 µM
  percentage of EdU-negative: 24.3 ± 0.42%
hTERT-HMEC; [3]
  percentage of EdU-negative: 5.51 ± 0.91%
hTERT-HMEC; protein concentration 0.225 µM
  percentage of EdU-negative: 6.26 ± 0.1%

## MAQSRVLLLLLLLPPQLHLGPVLAVRAPGFGRSGGHSLSPEENEFAEEEPVLVLSPEEPGPGPAAVSCPRDCACSQEGVVDCGGIDLREFPGDLPEHTNHLSLQNNQLEKIYPEELSRLHRLETLNLQNNRLTSRGLPEKAFEHLTNLNYLYLANNKLTLAPRFLPNALISVDFAANYLTKIYGLTFGQKPNLRSVYLHNNKLADAGLPDNMFNGSSNVEVLILSSNFLRHVPKHLPPALYKLHLKNNKLEKIPPGAFSELSSLRELYLQNNYLTDEGLDNETFWKLSSLEYLDLSSNNLSRVPAGLPRSLVLLHLEKNAIRSVDANVLTPIRSLEYLLLHSNQLREQGIHPLAFQGLKRLHTVHLYNNALERVPSGLPRRVRTLMILHNQITGIGREDFATTYFLEELNLSYNRITSPQVHRDAFRKLRLLRSLDLSGNRLHTLPPGLPRNVHVLKVKRNELAALARGALVGMAQLRELYLTSNRLRSRALGPRAWVDLAHLQLLDIAGNQLTEIPEGLPESLEYLYLQNNKISAVPANAFDSTPNLKGIFLRFNKLAVGSVVDSAFRRLKHLQVLDIEGNLEFGDISKDRGRLGKEKEEEEEEEEEEEETR [Q7Z5L7]
MCF7; [1]
  percentage of EdU-negative: 24.5 ± 1.1%
MCF7; [2]
  percentage of EdU-negative: 23.2 ± 0.88%
hTERT-HMEC; [1]
  percentage of EdU-negative: 4.64 ± 0.6%
hTERT-HMEC; [2]
  percentage of EdU-negative: 5.72 ± 1.3%
